Where two headings read alike, the source gives them in different places.
Legend:
[1] = animal daily doses 10 to 1,000 μg/kg for 30 days; human 2.5 to 100 μg/kg/day
Protocol: Based upon safety evaluation studies in animals (where the daily doses tested ranged from 10 to 1,000 μg/kg for 30 days) and the pharmacology profile of, AII(1-7), the dose range used in humans ranged from 2.5 to 100 μg/kg/day over at least 10 days.

[2] = tested on: patients with newly diagnosed breast cancer receiving doxorubicin and cyclophosphamide; assay: Phase I/II dose escalation study of AII(1-7) before and after chemotherapy (Example 5); details: in vivo
[3] = tested on: patients with newly diagnosed breast cancer receiving doxorubicin and cyclophosphamide
[4] = tested on: mice injected with 150 mg/kg 5FU intravenously (WBC, platelets, hemoglobin); assay: Effect of angiotensin fragments and ACE inhibitor on recovery after chemotherapy (Example 4); assay type: in vivo; details: after i.v. 5FU
Protocol: The next study was designed to test the effect of angiotensin peptides and the angiotensin converting enzyme inhibitor, enalapril, on recovery of white blood cells, platelets and hemoglobin after chemotherapy, as well as on granulocyte-macrophage colony forming units (GM-CFU) in the blood and bone marrow.
Female […] mice (4 per group), 6-8 weeks old, were injected with 150 mg/kg 5FU intravenously. Administration of the peptides (AII (100 μg/kg/day), AII(1-7) (10 or 100 μg/kg/day), AII(1-5) (10 or 100 μg/kg/day), and AII(1-6) (100 μg/kg/day)), by subcutaneous injection, or enalapril (30 mg/kg/day) by oral gavage, was begun 2 days after administration of the antineoplastic and continued daily until 28 days after 5FU administration, at which time the mice were euthanized for evaluation of white blood cell numbers, platelets, hemoglobin levels and the number of GM-CFU in the bone marrow and peripheral blood. On days 7, 10, 14 and 21 after 5FU administration, blood was taken under anesthesia from the retro-orbital sinus to assess white blood cell number, platelet number, and hemoglobin levels.
The mice were bled from the retro-orbital sinus at days 7, 10, 14 and 21. The mice were anesthetized with Metofane (an inhaled anesthesia). Approximately 150-200 μl of blood were obtained from the retro-orbital sinus with a heparinzed capillary tube. The blood was then placed in a 1.7 ml microfuge tube containing 10 mM EDTA and held on ice until further processing.
One hundred μl of blood was pipetted into a centrifuge tube, to which 900 μl of distilled water was added. The blood and water were mixed by inversion and allowed incubate at 4° C. for 20 minutes. The tube was then centrifuged at 12000 rpm to precipitate the cellular debri for 20 to 30 minutes at room temperature. Twenty μl of the supernatant from this centrifugation was then added into triplicate wells of a 96 well plate containing 180 μl of distilled water. The optical density, was then read using a microplate reader at […].
Twenty μl of blood was mixed with 200 μl of red blood cell (RBC) lysing solution (0.83% NH4Cl, 10 mM EDTA, 0.5% NaHCO3). The mixture was then incubated for 10 minutes at 4° C. After this incubation, the supernatant was removed and the pellet was resuspended in 100 μl of PBS. To this, 100 μl of 0.04% trypan blue was added. This mixture was vortexed and the number of WBC (baseline was approximately 10^7 cells/ml) was evaluated by hematocytometer under light microscopy and the number: of platelets (baseline was approximately 2.5×10^8 platelets/ml) was evaluated by hematocytometer under phase contrast microscopy.
The blood was harvested by cardiac puncture on day 10 to assess mobilization of myeloid progenitors into the peripheral blood. The femurs and tibia were also collected and the bone marrow was harvested by flushing with PBS containing 2% fetal calf serum. After collection of the blood and bone marrow, the red blood cells were lysed with a hypotonic solution (described above), mixed with 0.04% trypan blue, and the number of nucleated cells assessed by hematocytometer under light microscopy. Aliquots of cells were then resuspended at 1×10^5 cells/ml (bone marrow) or 1×10^6 cells/ml Flood). […]

[5] = tested on: female C57B1/6 mice treated with 200 mg/kg cytoxan

For Asp-Arg-Val-Tyr-Ile-His-Pro [AII(1-7)], the “safety margin of human dose range over the animal exposures” value [1] was 9-10 fold, the “drug related serious adverse events” value [2] was “No drug related serious adverse events” and the “safety (summary)” value [2] was “safe without observed dose limiting toxicities”. The “change in platelet number” value ([3]; 50 μg/kg/day AII(1-7)) was “only day 12 showed any change in platelet number”, the dose-limiting toxicities ([3]; 2.5 to 100 μg/kg/d) was “No dose-limiting toxicities” and the “Toxicity: ANC < 1000/μl (frequency)” value ([3]; AII(1-7) 2.5 μg/kg) was 100%. The “Toxicity: Hgb < 10 gm/dl (frequency)” value ([3]; AII(1-7) 2.5 μg/kg) was 66%, the “Toxicity: Lymph < 500/μl (frequency)” value ([3]; AII(1-7) 2.5 μg/kg) was 66% and the “Toxicity: Platelet < 80 K/μl (frequency)” value ([3]; AII(1-7) 2.5 μg/kg) was 0%. For the same substance, the “Toxicity: WBC < 2000/μl (frequency)” value ([3]; AII(1-7) 2.5 μg/kg) was 66%, the “Toxicity: ANC < 1000/μl (frequency)” value ([3]; AII(1-7) 10 μg/kg) was 100% and the “Toxicity: Hgb < 10 gm/dl (frequency)” value ([3]; AII(1-7) 10 μg/kg) was 33%. The “Toxicity: Lymph < 500/μl (frequency)” value ([3]; AII(1-7) 10 μg/kg) was 33%, the “Toxicity: Platelet < 80 K/μl (frequency)” value ([3]; AII(1-7) 10 μg/kg) was 0% and the “Toxicity: WBC < 2000/μl (frequency)” value ([3]; AII(1-7) 10 μg/kg) was 66%. The “Toxicity: ANC < 1000/μl (frequency)” value ([3]; AII(1-7) 50 μg/kg) was 100%, the “Toxicity: Hgb < 10 gm/dl (frequency)” value ([3]; AII(1-7) 50 μg/kg) was 0% and the “Toxicity: Lymph < 500/μl (frequency)” value ([3]; AII(1-7) 50 μg/kg) was 33%. The “Toxicity: Platelet < 80 K/μl (frequency)” value ([3]; AII(1-7) 50 μg/kg) was 0%, the “Toxicity: WBC < 2000/μl (frequency)” value ([3]; AII(1-7) 50 μg/kg) was 66% and the “Toxicity: ANC < 1000/μl (frequency)” value ([3]; AII(1-7) 75 μg/kg) was 100%. For the same substance, the “Toxicity: Hgb < 10 gm/dl (frequency)” value ([3]; AII(1-7) 75 μg/kg) was 0%, the “Toxicity: Lymph < 500/μl (frequency)” value ([3]; AII(1-7) 75 μg/kg) was 0% and the “Toxicity: Platelet < 80 K/μl (frequency)” value ([3]; AII(1-7) 75 μg/kg) was 0%. For the same substance, the “Toxicity: WBC < 2000/μl (frequency)” value ([3]; AII(1-7) 75 μg/kg) was 100%, the “Toxicity: ANC < 1000/μl (frequency)” value ([3]; AII(1-7) 100 μg/kg) was 100% and the “Toxicity: Hgb < 10 gm/dl (frequency)” value ([3]; AII(1-7) 100 μg/kg) was 0%. The “Toxicity: Lymph < 500/μl (frequency)” value ([3]; AII(1-7) 100 μg/kg) was 0%, the “Toxicity: Platelet < 80 K/μl (frequency)” value ([3]; AII(1-7) 100 μg/kg) was 0% and the “Toxicity: WBC < 2000/μl (frequency)” value ([3]; AII(1-7) 100 μg/kg) was 33%. The platelets ([3]; across doses) was “dose-dependent increase in platelets”, the “restoration of hemoglobin prior to the next cycle” value ([3]; all doses) was “restoration of hemoglobin prior to the next cycle was observed” and the “over-production of formed blood elements” value ([3]; before or after chemotherapy) was “No over-production of formed blood elements”. For the same substance, the “Alopecia (frequency by treatment group)” value ([3]; chemotherapy patients) was 46%, the “Anemia (frequency by treatment group)” value ([3]; chemotherapy patients) was 7% and the “Fatigue (frequency by treatment group)” value ([3]; chemotherapy patients) was 93%. The “Headache (frequency by treatment group)” value ([3]; chemotherapy patients) was 26%, the “Myalgia/Muscle-skeletal pain (frequency by treatment group)” value ([3]; chemotherapy patients) was 53% and the “Nausea (frequency by treatment group)” value ([3]; chemotherapy patients) was 93%. The “Stomatitis (frequency by treatment group)” value ([3]; chemotherapy patients) was 40%, the “Vomiting (frequency by treatment group)” value ([3]; chemotherapy patients) was 80% and the “frequency of grade 2-4 anemia” value ([3]; compared to filgrastim) was “reduced the frequency”. For the same substance, the “frequency of grade 2-4 thrombocytopenia” value ([3]; compared to filgrastim) was “reduced the frequency”, the “frequency of grade 3-4 lymphopenia” value ([3]; compared to filgrastim) was “reduced the frequency” and the late neutrophil recovery ([3]; compared to filgrastim) was “enhanced compared to filgrastim”. The “synergy between filgrastim and AII(1-7)” value ([3]; following 10-12 days of AII(1-7), as little as 1 dose of filgrastim normalizes the neutrophil count) was “possible synergy”, the “ability to maintain on cycle, full intensity chemotherapy” value ([3]; in vivo) was “permitted the patients to maintain full intensity chemotherapy on cycle” and the “cycle delays due to neutropenia” value ([3]; in vivo) was “No cycle delays due to neutropenia”. The “dose at which anemia correction with each cycle was observed” value ([3]; in vivo) was ≥ 2.5 µg/kg, the “dose intensity of chemotherapy received by all study patients” value ([3]; in vivo) was 100% and the “doses that appear to be active” value ([3]; in vivo) was “greater than 10 μg/kg/day”. For the same substance, the hematopoietic lineages ([3]; in vivo) was “increase in multiple hematopoietic lineages”, the “level of nadir in number of white blood cells and absolute neutrophil count and time to these nadirs” value ([3]; in vivo) was “dose dependent increase” and the “mobilization of hematopoietic progenitors into the peripheral blood” value ([3]; in vivo) was “mobilization of hematopoietic progenitors into the peripheral blood”. For the same substance, the neutrophil nadirs ([3]; in vivo) was “not affected”, the optimal dosage range ([3]; in vivo) was 50 to 75 µg/kg/day and the “recovery towards baseline in formed blood elements” value ([3]; in vivo) was “improves the recovery towards baseline in all formed blood elements”. For the same substance, the “day of nadir in platelet number” value ([3]; lowest dose of AII(1-7)) was 12 days, the hemoglobin after chemotherapy ([3]; lowest dose of AII(1-7)) was “reduction in hemoglobin was observed” and the “hemoglobin level by the next cycle” value ([3]; lowest dose of AII(1-7)) was “returned to baseline levels by the next cycle”. For the same substance, the “change in platelet number” value ([3]; next higher dose than 50 μg/kg/day) was “no decrease in platelet number occurred”, the “reduction of the frequency of stomatitis” value ([3]; of that observed with filgrastim treatment) was 30% and the “doses of filgrastim needed at day 15 to treat grade 4 neutropenia” value ([3]; patients treated at 2.5 and 10 μg/kg AII(1-7)) was 1-2 doses. For the same substance, the “acute effect on blood pressure following administration” value ([3]; patients with or without a history of hypertension) was “No acute affect on blood pressure”, the “frequency of headache, muscle pain and alopecia” value ([3]; relative to historical numbers and filgrastim controls) was “decreasing the frequency” and the anemia ([3]; subsequent dose increases of AII(1-7)) was “slight to no anemia”. The platelets after administration [4] was “increase in platelets”, the “number of GM-CFU in the bone marrow” value ([5]; 100 μg/kg/day, started 2 days prior to cytoxan) was “slightly reduced” and the “number of myeloid progenitor cells in the bone marrow” value ([5]; administration initiated 2 days after chemotherapy) was “increased the number of myeloid progenitor cells in the bone marrow”. For the same substance, the “number of myeloid progenitors in the peripheral blood” value ([5]; administration initiated after cyclophosphamide treatment) was “increased the number of myeloid progenitors in the peripheral blood”, the “recovery of WBC after intravenous cyclophosphamide” value ([5]; s.c. treatment initiated two days after the chemotherapeutic) was “accelerated the recovery of WBC” and the “time after cyclophosphamide at which increase in WBC number was observed” value ([5]; treatment initiated two days after cyclophosphamide) was ≤ 9 days. The “WBC number compared with control” value ([5]; treatment initiated two days prior to cyclophosphamide, starting on day 14) was “decrease in WBC number compared with control”.

Reference: patent US7338938B2, “Methods for treating a patient undergoing chemotherapy” (University of Southern California, priority 1999, dated 2008)
